This passage reports formation of the complexes (percent) results from article PMC9696751.

Ends that are not written are not given here.

The target of this assay is nano-HER2-E3 (UniProt P04637). Put plainly: SEC; analytical chromatography on Superdex 200 Increase 5/150 GL; equimolar mixtures. For orientation: SEC sorts molecules by how far they enter the pores of the column.

B1: 647-C-K3 (peptide)
peptide: C(Alexa‑647 maleimide)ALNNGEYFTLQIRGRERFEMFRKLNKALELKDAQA
Consider B1, for which the formation of the complexes (percent) was below 95%.
